In the assay the target is human Fas (CD95/APO-1) (human) (UniProt P25445). The experiment in a line: flow cytometric immunofluorescence on 293 cells, 2 ug/ml antibody compared with FITC-conjugated isotype control DAK-G01.

Mean Fas fluorescence, fold over nonspecific fluorescence (isotype control) data for 1 substance are collected here from US20040224389A1.

Sequence of UniProt P25445 (P25445 26-335 limits assumed): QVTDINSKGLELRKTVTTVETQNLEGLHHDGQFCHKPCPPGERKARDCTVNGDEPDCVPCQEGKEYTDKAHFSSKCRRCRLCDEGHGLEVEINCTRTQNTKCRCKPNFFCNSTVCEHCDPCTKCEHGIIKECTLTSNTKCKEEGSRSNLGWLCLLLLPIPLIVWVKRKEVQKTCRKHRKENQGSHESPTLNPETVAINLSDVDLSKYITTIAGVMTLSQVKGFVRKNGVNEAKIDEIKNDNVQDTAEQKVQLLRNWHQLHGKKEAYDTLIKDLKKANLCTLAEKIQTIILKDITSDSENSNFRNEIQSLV

In turn, “FITC-conjugated mouse IgG1 anti-human Fas receptor (clone DX2, Pharmingen) (antibody)” came in with a mean Fas fluorescence, fold over nonspecific fluorescence (isotype control) of 4.9 fold.
